What follows are sequences tested on Escherichia coli TOP10 (assay: shrunken log2 fold change of peptide-encoding DNA abundance (4.5 h post-induction vs induction); higher = less antimicrobial activity (less host growth inhibition)). Settings: time post-induction: 4.5 h; library: site-saturation at positions 5, 18, 19, 20.
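Note: peptides expressed intracellularly from a pBAD plasmid library in pooled LB shake-flask culture, induced with 0.3% L-arabinose, DNA abundance read by NGS, three biological replicates, DESeq2 with apeglm shrinkage.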

Sequence	shrunken log2 fold change
RRIRIRPPRLPRPRPRPGFLPRP	-0.328
RRIRDRPPRLPRPRPRPTQDPRP	1.27
RRIRKRPPRLPRPRPRPRYPPRP	0.122
RRIRDRPPRLPRPRPRPNLSPRP	-0.115
RRIRKRPPRLPRPRPRPINKPRP	-0.328
RRIRCRPPRLPRPRPRPNLVPRP	-0.192
RRIRHRPPRLPRPRPRPDYCPRP	-0.01
RRIRMRPPRLPRPRPRPVFPPRP	0.0941
RRIRIRPPRLPRPRPRPQECPRP	-0.0195
RRIRRRPPRLPRPRPRPVQGPRP	0.223
RRIRSRPPRLPRPRPRPQVHPRP	-0.012
RRIRTRPPRLPRPRPRPYCCPRP	-0.364
RRIRMRPPRLPRPRPRPWEIPRP	-0.00146
RRIRRRPPRLPRPRPRPIGEPRP	-0.00811
RRIRFRPPRLPRPRPRPGVAPRP	0.292
RRIRWRPPRLPRPRPRPTTIPRP	0.127
RRIRPRPPRLPRPRPRPVDHPRP	0.0611
RRIRCRPPRLPRPRPRPNWPPRP	0.0717
RRIRIRPPRLPRPRPRPWRRPRP	1.46
RRIRHRPPRLPRPRPRPSMRPRP	0.204
RRIRYRPPRLPRPRPRPMHCPRP	-0.0557
RRIRDRPPRLPRPRPRPTERPRP	0.463

Sequence	shrunken log2 fold change
RRIRLRPPRLPRPRPRPWCLPRP	-0.317
RRIRRRPPRLPRPRPRPIGVPRP	0.273
RRIRNRPPRLPRPRPRPAQNPRP	0.861
RRIRKRPPRLPRPRPRPCTHPRP	-0.14
RRIRCRPPRLPRPRPRPNENPRP	-0.0814
RRIRTRPPRLPRPRPRPNLKPRP	-0.374
RRIRERPPRLPRPRPRPVIRPRP	-0.305
RRIRFRPPRLPRPRPRPNRSPRP	-0.299
RRIRRRPPRLPRPRPRPKLWPRP	0.701
RRIRKRPPRLPRPRPRPGWQPRP	0.347
RRIRIRPPRLPRPRPRPDCFPRP	-0.211
RRIRQRPPRLPRPRPRPVWEPRP	0.0571
RRIRWRPPRLPRPRPRPLDTPRP	0.0244
RRIRYRPPRLPRPRPRPQRWPRP	-0.13
RRIRERPPRLPRPRPRPCGLPRP	-0.0273
RRIRRRPPRLPRPRPRPTHDPRP	0.89
RRIRIRPPRLPRPRPRPRPQPRP	0.321
RRIRYRPPRLPRPRPRPPSEPRP	-0.0723
RRIRDRPPRLPRPRPRPRSPPRP	-0.183
RRIRHRPPRLPRPRPRPTWQPRP	0.572
RRIRDRPPRLPRPRPRPHEAPRP	0.151
RRIRTRPPRLPRPRPRPPKMPRP	0.18

Sequence	shrunken log2 fold change
RRIRMRPPRLPRPRPRPVLAPRP	0.493
RRIRDRPPRLPRPRPRPGGCPRP	0.687
RRIRRRPPRLPRPRPRPHQGPRP	0.0901
RRIRIRPPRLPRPRPRPIPVPRP	-0.0943
RRIRQRPPRLPRPRPRPHCTPRP	0.157
RRIRIRPPRLPRPRPRPPTEPRP	-0.323
RRIRFRPPRLPRPRPRPRGRPRP	0.454
RRIRDRPPRLPRPRPRPPCQPRP	0.029
RRIRRRPPRLPRPRPRPWNYPRP	-0.242
RRIRYRPPRLPRPRPRPRCWPRP	0.136
RRIRWRPPRLPRPRPRPDVAPRP	1.3
RRIRKRPPRLPRPRPRPSVQPRP	0.0869
RRIRPRPPRLPRPRPRPSPYPRP	-0.461
RRIRWRPPRLPRPRPRPVTGPRP	0.183
RRIRSRPPRLPRPRPRPFMKPRP	-0.205
RRIRIRPPRLPRPRPRPFTPPRP	-0.875
RRIRFRPPRLPRPRPRPRPQPRP	0.684
RRIRCRPPRLPRPRPRPMDTPRP	0.0459
RRIRFRPPRLPRPRPRPFHYPRP	0.0611
RRIRNRPPRLPRPRPRPGENPRP	0.185
RRIRDRPPRLPRPRPRPFELPRP	-0.0281
RRIRGRPPRLPRPRPRPVMVPRP	0.128

Sequence	shrunken log2 fold change
RRIRHRPPRLPRPRPRPLYRPRP	-0.343
RRIRVRPPRLPRPRPRPMMEPRP	0.00705
RRIRVRPPRLPRPRPRPNTHPRP	-0.457
RRIRFRPPRLPRPRPRPNKAPRP	-0.268
RRIRRRPPRLPRPRPRPQQCPRP	0.15
RRIRNRPPRLPRPRPRPAYNPRP	-0.259
RRIRMRPPRLPRPRPRPKWMPRP	0.21
RRIRNRPPRLPRPRPRPAMRPRP	0.842
RRIRDRPPRLPRPRPRPSIRPRP	-0.103
RRIRKRPPRLPRPRPRPIATPRP	-0.0616
RRIRNRPPRLPRPRPRPQYSPRP	-0.232
RRIRPRPPRLPRPRPRPFRMPRP	-0.134
RRIRERPPRLPRPRPRPGSKPRP	-0.129
RRIRPRPPRLPRPRPRPGNRPRP	-0.0146
RRIRFRPPRLPRPRPRPKMDPRP	-0.0752
RRIRMRPPRLPRPRPRPENYPRP	-0.0708
RRIRARPPRLPRPRPRPYLCPRP	-0.291
RRIRPRPPRLPRPRPRPSGRPRP	0.0933
RRIRLRPPRLPRPRPRPVSVPRP	-0.118
RRIRRRPPRLPRPRPRPLEGPRP	0.0703
RRIRPRPPRLPRPRPRPKSKPRP	-0.255
RRIRDRPPRLPRPRPRPIWHPRP	0.144

Sequence	shrunken log2 fold change
RRIRDRPPRLPRPRPRPMACPRP	-0.00146
RRIRLRPPRLPRPRPRPTAPPRP	0.645
RRIRKRPPRLPRPRPRPKNGPRP	0.173
RRIRWRPPRLPRPRPRPAAKPRP	0.482
RRIRIRPPRLPRPRPRPNSRPRP	-0.0636
RRIRRRPPRLPRPRPRPFWLPRP	0.231
RRIRHRPPRLPRPRPRPYYRPRP	-0.0075
RRIRERPPRLPRPRPRPWRDPRP	-0.268
RRIRFRPPRLPRPRPRPKLDPRP	0.0288
RRIRHRPPRLPRPRPRPVYEPRP	0.015
RRIRPRPPRLPRPRPRPCIRPRP	-0.14
RRIRRRPPRLPRPRPRPAVPPRP	0.146
RRIRLRPPRLPRPRPRPRINPRP	-0.0907
RRIRCRPPRLPRPRPRPLWAPRP	0.321
RRIRYRPPRLPRPRPRPMHPPRP	-0.0223
RRIRHRPPRLPRPRPRPFSEPRP	-0.591
RRIRWRPPRLPRPRPRPHHHPRP	-0.428
RRIRHRPPRLPRPRPRPCESPRP	0.0295
RRIRDRPPRLPRPRPRPRRNPRP	0.225
RRIRNRPPRLPRPRPRPNCLPRP	-0.116
RRIRTRPPRLPRPRPRPGANPRP	-0.124

Reference: the supplement of paper PMC9112550, “Optimization of the antimicrobial peptide Bac7 by deep mutational scanning” (BMC Biology, 2022)
